B1: Coiled-coil alpha-helical rod protein 1 (Homo sapiens), Q8TD31 (parent)
chain: MFPPSGSTGLIPPSHFQARPLSTLPRMAPTWLSDIPLVQPPGHQDVSERRLDTQRPQVTMWERDVSSDRQEPGRRGRSWGLEGSQALSQQAEVIVRQLQELRRLEEEVRLLRETSLQQKMRLEAQAMELEALARAEKAGRAEAEGLRAALAGAEVVRKNLEEGSQRELEEVQRLHQEQLSSLTQAHEEALSSLTSKAEGLEKSLSSLETRRAGEAKELAEAQREAELLRKQLSKTQEDLEAQVTLVENLRKYVGEQVPSEVHSQTWELERQKLLETMQHLQEDRDSLHATAELLQVRVQSLTHILALQEEELTRKVQPSDSLEPEFTRKCQSLLNRWREKVFALMVQLKAQELEHSDSVKQLKGQVASLQEKVTSQSQEQAILQRSLQDKAAEVEVERMGAKGLQLELSRAQEARRRWQQQTASAEEQLRLVVNAVSSSQIWLETTMAKVEGAAAQLPSLNNRLSYAVRKVHTIRGLIARKLALAQLRQESCPLPPPVTDVSLELQQLREERNRLDAELQLSARLIQQEVGRAREQGEAERQQLSKVAQQLEQELQQTQESLASLGLQLEVARQGQQESTEEAASLRQELTQQQELYGQALQEKVAEVETRLREQLSDTERRLNEARREHAKAVVSLRQIQRRAAQEKERSQELRRLQEEARKEEGQRLARRLQELERDKNLMLATLQQEGLLSRYKQQRLLTVLPSLLDKKKSVVSSPRPPECSASAPVAAAVPTRESIKGSLSVLLDDLQDLSEAISKEEAVCQGDNLDRCSSSNPQMSS
partner: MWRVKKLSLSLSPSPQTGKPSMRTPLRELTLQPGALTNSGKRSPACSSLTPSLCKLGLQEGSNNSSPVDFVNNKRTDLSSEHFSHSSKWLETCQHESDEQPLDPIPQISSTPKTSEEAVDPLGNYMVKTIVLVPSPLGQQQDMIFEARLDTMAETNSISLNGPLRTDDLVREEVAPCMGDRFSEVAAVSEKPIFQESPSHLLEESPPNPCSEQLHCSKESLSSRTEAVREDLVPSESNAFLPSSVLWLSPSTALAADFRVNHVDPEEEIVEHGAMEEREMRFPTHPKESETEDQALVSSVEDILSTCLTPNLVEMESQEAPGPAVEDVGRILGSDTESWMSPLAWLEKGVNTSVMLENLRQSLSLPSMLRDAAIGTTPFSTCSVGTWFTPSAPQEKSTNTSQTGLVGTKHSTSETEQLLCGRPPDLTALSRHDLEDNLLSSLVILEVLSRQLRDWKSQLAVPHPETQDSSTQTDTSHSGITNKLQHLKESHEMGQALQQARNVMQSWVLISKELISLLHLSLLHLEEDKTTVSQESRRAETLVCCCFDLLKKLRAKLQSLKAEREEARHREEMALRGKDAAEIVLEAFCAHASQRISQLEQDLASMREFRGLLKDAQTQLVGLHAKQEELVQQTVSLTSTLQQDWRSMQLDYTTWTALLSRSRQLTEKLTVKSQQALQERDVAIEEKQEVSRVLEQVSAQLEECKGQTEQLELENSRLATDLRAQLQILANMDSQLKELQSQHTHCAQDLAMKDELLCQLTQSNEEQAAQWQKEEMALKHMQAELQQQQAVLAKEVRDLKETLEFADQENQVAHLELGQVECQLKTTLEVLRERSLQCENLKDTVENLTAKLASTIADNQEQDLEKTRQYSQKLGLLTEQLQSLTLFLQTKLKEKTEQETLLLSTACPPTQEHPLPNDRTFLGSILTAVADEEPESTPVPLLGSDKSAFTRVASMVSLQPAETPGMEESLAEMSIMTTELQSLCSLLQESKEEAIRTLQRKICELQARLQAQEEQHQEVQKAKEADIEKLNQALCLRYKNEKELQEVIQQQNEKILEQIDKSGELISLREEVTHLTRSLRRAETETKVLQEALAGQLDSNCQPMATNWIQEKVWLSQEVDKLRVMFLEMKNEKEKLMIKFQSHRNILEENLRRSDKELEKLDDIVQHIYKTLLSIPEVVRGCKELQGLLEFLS
B2: Coiled-coil alpha-helical rod protein 1 (Homo sapiens), Q8TD31 (parent)
chain: B1 chain
partner: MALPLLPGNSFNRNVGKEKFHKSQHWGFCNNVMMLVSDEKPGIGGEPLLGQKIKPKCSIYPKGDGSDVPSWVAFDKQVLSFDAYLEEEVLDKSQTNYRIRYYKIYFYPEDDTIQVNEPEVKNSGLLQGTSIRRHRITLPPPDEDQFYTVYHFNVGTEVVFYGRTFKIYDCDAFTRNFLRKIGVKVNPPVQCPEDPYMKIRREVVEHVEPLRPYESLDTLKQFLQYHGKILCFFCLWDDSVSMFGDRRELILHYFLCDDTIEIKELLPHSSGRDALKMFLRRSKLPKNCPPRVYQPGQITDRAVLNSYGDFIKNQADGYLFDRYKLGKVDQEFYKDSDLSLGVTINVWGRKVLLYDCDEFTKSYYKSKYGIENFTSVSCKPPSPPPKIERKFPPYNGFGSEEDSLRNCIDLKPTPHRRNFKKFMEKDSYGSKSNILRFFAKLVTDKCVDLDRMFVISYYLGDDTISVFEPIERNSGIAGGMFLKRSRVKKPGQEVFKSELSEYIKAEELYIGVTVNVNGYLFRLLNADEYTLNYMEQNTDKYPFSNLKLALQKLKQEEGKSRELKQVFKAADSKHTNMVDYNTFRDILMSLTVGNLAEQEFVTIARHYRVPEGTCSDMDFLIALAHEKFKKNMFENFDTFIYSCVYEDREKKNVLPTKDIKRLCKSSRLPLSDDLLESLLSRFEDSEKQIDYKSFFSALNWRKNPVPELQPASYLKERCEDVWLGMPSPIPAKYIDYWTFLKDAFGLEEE
B3: Coiled-coil alpha-helical rod protein 1 (Homo sapiens), Q8TD31 (parent)
chain: B1 chain
partner: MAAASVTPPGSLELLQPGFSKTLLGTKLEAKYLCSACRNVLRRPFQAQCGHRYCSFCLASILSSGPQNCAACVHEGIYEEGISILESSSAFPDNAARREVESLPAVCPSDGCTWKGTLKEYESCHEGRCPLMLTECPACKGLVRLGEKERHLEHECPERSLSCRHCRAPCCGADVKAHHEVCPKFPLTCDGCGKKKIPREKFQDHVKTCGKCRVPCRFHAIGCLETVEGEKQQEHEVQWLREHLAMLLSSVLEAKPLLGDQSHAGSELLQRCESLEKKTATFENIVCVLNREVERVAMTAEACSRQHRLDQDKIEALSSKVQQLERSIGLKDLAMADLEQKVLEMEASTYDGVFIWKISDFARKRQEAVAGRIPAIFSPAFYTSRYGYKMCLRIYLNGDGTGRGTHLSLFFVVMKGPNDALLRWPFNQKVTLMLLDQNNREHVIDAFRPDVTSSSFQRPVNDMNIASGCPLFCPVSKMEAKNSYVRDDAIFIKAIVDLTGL
B4: Coiled-coil alpha-helical rod protein 1 (Homo sapiens), Q8TD31 (parent)
chain: B1 chain
partner: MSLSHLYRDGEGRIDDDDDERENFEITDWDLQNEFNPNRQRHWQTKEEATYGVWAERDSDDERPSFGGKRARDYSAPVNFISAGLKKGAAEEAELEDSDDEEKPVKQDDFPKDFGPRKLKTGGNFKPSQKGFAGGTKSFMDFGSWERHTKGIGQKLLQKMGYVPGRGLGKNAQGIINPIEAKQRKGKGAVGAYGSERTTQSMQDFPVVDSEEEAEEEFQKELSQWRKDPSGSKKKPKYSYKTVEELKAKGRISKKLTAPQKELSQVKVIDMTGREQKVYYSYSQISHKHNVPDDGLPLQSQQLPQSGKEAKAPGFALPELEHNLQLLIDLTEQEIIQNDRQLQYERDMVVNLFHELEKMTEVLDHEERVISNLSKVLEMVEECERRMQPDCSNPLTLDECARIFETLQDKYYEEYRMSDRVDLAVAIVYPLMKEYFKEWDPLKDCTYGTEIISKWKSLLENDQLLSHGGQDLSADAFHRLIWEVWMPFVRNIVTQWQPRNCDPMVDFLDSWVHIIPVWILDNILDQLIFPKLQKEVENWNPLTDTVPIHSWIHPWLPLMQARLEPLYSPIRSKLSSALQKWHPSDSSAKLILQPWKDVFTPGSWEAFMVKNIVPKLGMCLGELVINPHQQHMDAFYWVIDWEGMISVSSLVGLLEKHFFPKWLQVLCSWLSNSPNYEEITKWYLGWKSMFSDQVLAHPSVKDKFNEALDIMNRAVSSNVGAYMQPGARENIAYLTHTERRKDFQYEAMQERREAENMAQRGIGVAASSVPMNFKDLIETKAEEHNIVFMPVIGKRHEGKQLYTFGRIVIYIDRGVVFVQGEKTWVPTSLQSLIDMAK
B5: Coiled-coil alpha-helical rod protein 1 (Homo sapiens), Q8TD31 (parent)
chain: B1 chain
partner: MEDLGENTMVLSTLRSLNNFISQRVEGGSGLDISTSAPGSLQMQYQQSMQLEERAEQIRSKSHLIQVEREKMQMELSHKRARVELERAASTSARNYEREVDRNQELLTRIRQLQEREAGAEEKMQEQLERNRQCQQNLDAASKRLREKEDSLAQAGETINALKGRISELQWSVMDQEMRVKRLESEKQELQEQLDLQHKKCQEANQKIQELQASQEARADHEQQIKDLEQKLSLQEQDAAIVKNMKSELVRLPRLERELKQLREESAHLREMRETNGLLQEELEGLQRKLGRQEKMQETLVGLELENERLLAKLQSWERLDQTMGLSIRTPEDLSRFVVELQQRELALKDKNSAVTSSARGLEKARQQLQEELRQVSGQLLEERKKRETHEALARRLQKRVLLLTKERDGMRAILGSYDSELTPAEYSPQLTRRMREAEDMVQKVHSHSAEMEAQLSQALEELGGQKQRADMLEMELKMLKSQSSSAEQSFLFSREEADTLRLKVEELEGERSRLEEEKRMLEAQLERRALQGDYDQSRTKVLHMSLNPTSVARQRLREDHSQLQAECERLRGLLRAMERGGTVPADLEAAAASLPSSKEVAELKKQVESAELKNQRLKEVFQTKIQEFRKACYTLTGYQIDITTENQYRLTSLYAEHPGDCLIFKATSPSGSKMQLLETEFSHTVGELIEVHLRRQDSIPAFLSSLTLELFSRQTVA

Variants of: B1
Details: with spag5_human SPAG5, Q96R06

Row | Variant | effect of a mutation on the interaction
1 | W337R | disrupting interaction strength

Variants of: B2
Details: with efhc2_human EFHC2, Q5JST6

Row | Variant | effect of a mutation on the interaction
2 | W337R | disrupting interaction strength

Variants of: B3
Details: with traf2_human TRAF2, Q12933

Row | Variant | effect of a mutation on the interaction
3 | W337R | disrupting interaction strength

Variants of: B4
Details: with tfp11_human TFIP11, Q9UBB9

Row | Variant | effect of a mutation on the interaction
4 | W337R | with no effect

Variants of: B5
Details: with md1l1_human MAD1L1, Q9Y6D9

Row | Variant | effect of a mutation on the interaction
5 | W337R | disrupting interaction strength

Source: IntAct's records for PubMed 29892012
